± gives the standard deviation of the averaged measurements.
What was measured:
[1] = tested on: VchCAST RNA-guided transposition machinery (E. coli BL21(DE3) host, lacZ target); test: relative integration efficiency (T-LR orientation) vs wild-type transposon end (log2 (normalized fold change)); transposon end mutated: right end (5 bp flank + 75 bp right end); higher = more efficient transposition
Procedure, shortened: (§1)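 Each barcoded pool, 1549 left-end or 1849 right-end transposon variants in a pUC57 mini-transposon donor, went into E. coli BL21(DE3) with a T7-driven effector plasmid (CRISPR array, tniQ-cas8-cas7-cas6, tnsA-tnsB-tnsC). Plates contained 0.1 mM IPTG and were held at 37°C for 18 h. Input plasmids and genomic integration junctions were PCR-amplified and read by Illumina sequencing, with two biological output replicates and four reference barcodes. Relative integration efficiency is the fold change of output over input barcode abundance, normalised to the reference barcodes and log-transformed.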

[2] = tested on: VchCAST RNA-guided transposition machinery (E. coli BL21(DE3) host, lacZ target); test: relative integration efficiency (T-RL orientation) vs wild-type transposon end (log2 (normalized fold change)); transposon end mutated: right end (5 bp flank + 75 bp right end); higher = more efficient transposition
Procedure, shortened: as §1

Sequence	relative integration efficiency (log2) [1]	relative integration efficiency (log2) [2]
ACATTTGTTGATACAACCATAAAATGCTAATTACACCCATAAATTGCTAATTATCACACCCATAAATTGCTATTGCCTCTGATCATAGTCAGACCAACATTGCTACGACCCGTATTCGCACCGACAC	-0.567 ± 0.21	-1.55 ± 0.13
ACATTTGTTGATACAACCATAAAATGGTAATTACACCCATACATTGATAATTATCACACCCAATTTAACTATAACGCTCTGATCATAGTCAGACCAACATTGCTACGACCCGTATTCGCACCGACAC	0.71 ± 0.05	-2.58 ± 0.27
ACATTTGTTGATACAACCATAAAATGGTAATTACACCCCTAAATTGATAATTATCACACCCAATTTAACTATAACGCTCTGATCATAGTCAGACCAACATTGCTACGACCCGTATTCGCACCGACAC	0.104 ± 0.26	-3.07 ± 0.34
ACATTTGTTGATACAACCATAAAATGGTAATTACACCCCTACATTGATAATTATCACACCCAATTTAACTATAACGCTCTGATCATAGTCAGACCAACATTGCTACGACCCGTATTCGCACCGACAC	-0.856 ± 0.38	-3.67 ± 0.066
ACATTTGTTGATACAACCATAAAATGGTAATTCCACCCATAAATTGATAATTATCACACCCAATTTAACTATAACGCTCTGATCATAGTCAGACCAACATTGCTACGACCCGTATTCGCACCGACAC	2.06 ± 0.044	-1.45 ± 0.25
ACATTTGTTGATACAACCATAAAATGGTAATTCCACCCATACATTGATAATTATCACACCCAATTTAACTATAACGCTCTGATCATAGTCAGACCAACATTGCTACGACCCGTATTCGCACCGACAC	0.391 ± 0.15	-3.15 ± 0.33
ACATTTGTTGATACAACCATAAAATGGTAATTCCACCCCTAAATTGATAATTATCACACCCAATTTAACTATAACGCTCTGATCATAGTCAGACCAACATTGCTACGACCCGTATTCGCACCGACAC	-0.518 ± 0.25	-3.6 ± 0.27
ACATTTGTTGATACAACCATAAAATGGTAATTCCACCCCTACATTGATAATTATCACACCCAATTTAACTATAACGCTCTGATCATAGTCAGACCAACATTGCTACGACCCGTATTCGCACCGACAC	-0.604 ± 0.45	-3.92 ± 0.41
ACATTTGTTGATACAACCATAAAATGTAAATTACACCCATAAATTGATAATTATCACACCCATAAATTGATATTGCCTCTGATCATAGTCAGACCAACATTGCTACGACCCGTATTCGCACCGACAC	-0.454 ± 0.18	-0.732 ± 0.084
ACATTTGTTGATACAACCATAAAATGTATTAATCACCCATAAATTGTATTAATTCACACCCATAAATTGTATAACGCTCTGATCATAGTCAGACCAACATTGCTACGACCCGTATTCGCACCGACAC	-2.39 ± 0.35	-4.24 ± 0.14
ACATTTGTTGATACAACCATAAAATGTATTTTACACCCATAAATTGATAATTATCACACCCATAAATTGATATTGCCTCTGATCATAGTCAGACCAACATTGCTACGACCCGTATTCGCACCGACAC	-0.626 ± 0.31	-0.938 ± 0.035
ACATTTGTTGATACAACCATAAAATGTTAATTACACCCATAAATTGTTAATTATCACACCCATAAATTGTTATTGCCTCTGATCATAGTCAGACCAACATTGCTACGACCCGTATTCGCACCGACAC	-0.437 ± 0.34	-2.33 ± 0.29
ACATTTGTTGATACAACCATAAAATTATAATTACACCCATAAATTTATAATTATCACACCCATAAATTTATATTGCCTCTGATCATAGTCAGACCAACATTGCTACGACCCGTATTCGCACCGACAC	0.398 ± 0.67	-1.23 ± 0.3
ACATTTGTTGATACAACCATAAAATTATTATTACACCCATTAATTGATAATTATCACACCCAATTTAACTATAACGCTCTGATCATAGTCAGACCAACATTGCTACGACCCGTATTCGCACCGACAC	1.15 ± 0.09	-2.35 ± 0.18
ACATTTGTTGATACAACCATAAAATTCGCATTACACCCATAAATTGATAATTATCACACCCATAAATTGATATTGCCTCTGATCATAGTCAGACCAACATTGCTACGACCCGTATTCGCACCGACAC	-2.45 ± 0.2	-2.95 ± 0.25
ACATTTGTTGATACAACCATAAAATTCGCCGGCACAAACGCCCGGTCGCCGGCGACACAAACGCCCGGTCGCGGTAAGAGGATCATAGTCAGACCAACATTGCTACGACCCGTATTCGCACCGACAC	-0.949 ± 0.46	-4.45 ± 0.73
ACATTTGTTGATACAACCATAAAATTCTAATTACACCCATAAATTGATAATTATCACACCCATAAATTGATATTGCCTCTGATCATAGTCAGACCAACATTGCTACGACCCGTATTCGCACCGACAC	-1.38 ± 0.16	-1.85 ± 0.18
ACATTTGTTGATACAACCATAAACGGATAATTACACCCATAAATTGATAATTATCACACCCATAAATTGATATTGCCTCTGATCATAGTCAGACCAACATTGCTACGACCCGTATTCGCACCGACAC	-0.722 ± 0.72	-0.642 ± 0.01

Sequence	relative integration efficiency (log2) [1]	relative integration efficiency (log2) [2]
ACATTTGTTGATACAACCATAAACGTCTAATTACACCCATAAATTGATAATTATCACACCCATAAATTGATATTGCCTCTGATCATAGTCAGACCAACATTGCTACGACCCGTATTCGCACCGACAC	-2.25 ± 0.11	-2.72 ± 0.083
ACATTTGTTGATACAACCATAAACTGATAATTACACCCATAAAGTGATAATTATCACACCCATAAAGTGATATTGCCTCTGATCATAGTCAGACCAACATTGCTACGACCCGTATTCGCACCGACAC	0.264 ± 0.12	0.368 ± 0.095
ACATTTGTTGATACAACCATAAAGTGATATTTACAACCATAAAATGATAATTATCACAACCATAAAATGATAATTACTCTGATCATAGTCAGACCAACATTGCTACGACCCGTATTCGCACCGACAC	0.0497 ± 0.074	0.174 ± 0.1
ACATTTGTTGATACAACCATAAAGTGATATTTACAACCATAAAATGATAATTATCACAACCATAAAGTGATATTTACTCTGATCATAGTCAGACCAACATTGCTACGACCCGTATTCGCACCGACAC	0.103 ± 0.36	0.0289 ± 0.14
ACATTTGTTGATACAACCATAAAGTGATATTTACAACCATAAAATGATAATTATCACAACCATAAGTTGATATTTTCTCTGATCATAGTCAGACCAACATTGCTACGACCCGTATTCGCACCGACAC	-0.0726 ± 0.055	0.113 ± 0.034
ACATTTGTTGATACAACCATAAAGTGATATTTACAACCATAAAATGATAATTATCACAACCATATATTGATATCTCCTCTGATCATAGTCAGACCAACATTGCTACGACCCGTATTCGCACCGACAC	-0.163 ± 0.73	-0.261 ± 0.13
ACATTTGTTGATACAACCATAAAGTGATATTTACAACCATAAAATGATAATTATCACACCCATAAATTGATAATTACTCTGATCATAGTCAGACCAACATTGCTACGACCCGTATTCGCACCGACAC	0.307 ± 0.068	0.346 ± 0.076
ACATTTGTTGATACAACCATAAAGTGATATTTACAACCATAAAATGATAATTATCACACCCATAAATTGATATTGCCTCTGATCATAGTCAGACCAACATTGCTACGACCCGTATTCGCACCGACAC	-0.097 ± 0.68	-0.00564 ± 0.04
ACATTTGTTGATACAACCATAAAGTGATATTTACAACCATAAAATGATAATTATCAGTGGGTATTTAACTATAACGCTCTGATCATAGTCAGACCAACATTGCTACGACCCGTATTCGCACCGACAC	2.86 ± 0.12	-0.714 ± 0.27
ACATTTGTTGATACAACCATAAAGTGATATTTACAACCATAAAGTGATATTTATCACAACCATAAAATGATAATTACTCTGATCATAGTCAGACCAACATTGCTACGACCCGTATTCGCACCGACAC	0.11 ± 0.34	0.0579 ± 0.16
ACATTTGTTGATACAACCATAAAGTGATATTTACAACCATAAAGTGATATTTATCACAACCATAAAGTGATATTTACTCTGATCATAGTCAGACCAACATTGCTACGACCCGTATTCGCACCGACAC	0.061 ± 0.087	0.0208 ± 0.11
ACATTTGTTGATACAACCATAAAGTGATATTTACAACCATAAAGTGATATTTATCACAACCATAAGTTGATATTTTCTCTGATCATAGTCAGACCAACATTGCTACGACCCGTATTCGCACCGACAC	-0.279 ± 0.16	0.0887 ± 0.14
ACATTTGTTGATACAACCATAAAGTGATATTTACAACCATAAAGTGATATTTATCACAACCATATATTGATATCTCCTCTGATCATAGTCAGACCAACATTGCTACGACCCGTATTCGCACCGACAC	0.458 ± 0.14	0.115 ± 0.19
ACATTTGTTGATACAACCATAAAGTGATATTTACAACCATAAAGTGATATTTATCACACCCATAAATTGATAATTACTCTGATCATAGTCAGACCAACATTGCTACGACCCGTATTCGCACCGACAC	0.289 ± 0.082	0.0651 ± 0.0083
ACATTTGTTGATACAACCATAAAGTGATATTTACAACCATAAAGTGATATTTATCACACCCATAAATTGATATTGCCTCTGATCATAGTCAGACCAACATTGCTACGACCCGTATTCGCACCGACAC	-0.0332 ± 0.27	-0.0388 ± 0.082
ACATTTGTTGATACAACCATAAAGTGATATTTACAACCATAAAGTGATATTTATCAGTGGGTATTTAACTATAACGCTCTGATCATAGTCAGACCAACATTGCTACGACCCGTATTCGCACCGACAC	2.91 ± 0.034	-0.497 ± 0.26
ACATTTGTTGATACAACCATAAAGTGATATTTACAACCATAAGTTGATATTTTTCACAACCATAAAATGATAATTACTCTGATCATAGTCAGACCAACATTGCTACGACCCGTATTCGCACCGACAC	0.217 ± 0.045	-0.0427 ± 0.12

Source: the supplement of paper PMC10201428
